This note sets out measurements from patent EP2857035B1.

The target in experiment [1] is HLA-A2 (human). Briefly: assembly assay (HLA stabilisation), T2 cell lysate, IP, IEF gel.
The target in experiment [2] is HLA-A2 (human). Description: assembly assay, TAP-deficient cell lysate, W6/32 IP, IEF gel.
A further experiment concerns the target HLA-A1 (human). The description is as above.
The next experiment concerns the target HLA-A3 (human). The experiment is described as above.

For C1, HIV-1 pol476-484 (peptide), the C50 with HLA-A2 (human) [1] was found to be 0.7 µM; in the experiment with HLA-A2 (human) [2] it was 0.2 µM. With C1, Influenza A, PB1 591-599 (peptide), in the experiment with HLA-A1 (human), the C50 came out at 0.8 µM. As for “Influenza A, nucleoprotein 265-273 (peptide)”, in the experiment with HLA-A3 (human), the C50 came to 0.1 µM.
